Drawing on doi:10.1101/589580, this text covers partitioning (client fluorescence inside/outside ZO1 droplets) for three substances.

Chain of full-length ZO1 with C-terminal mEGFP (Q07157 whole entry, the tested form may be a part): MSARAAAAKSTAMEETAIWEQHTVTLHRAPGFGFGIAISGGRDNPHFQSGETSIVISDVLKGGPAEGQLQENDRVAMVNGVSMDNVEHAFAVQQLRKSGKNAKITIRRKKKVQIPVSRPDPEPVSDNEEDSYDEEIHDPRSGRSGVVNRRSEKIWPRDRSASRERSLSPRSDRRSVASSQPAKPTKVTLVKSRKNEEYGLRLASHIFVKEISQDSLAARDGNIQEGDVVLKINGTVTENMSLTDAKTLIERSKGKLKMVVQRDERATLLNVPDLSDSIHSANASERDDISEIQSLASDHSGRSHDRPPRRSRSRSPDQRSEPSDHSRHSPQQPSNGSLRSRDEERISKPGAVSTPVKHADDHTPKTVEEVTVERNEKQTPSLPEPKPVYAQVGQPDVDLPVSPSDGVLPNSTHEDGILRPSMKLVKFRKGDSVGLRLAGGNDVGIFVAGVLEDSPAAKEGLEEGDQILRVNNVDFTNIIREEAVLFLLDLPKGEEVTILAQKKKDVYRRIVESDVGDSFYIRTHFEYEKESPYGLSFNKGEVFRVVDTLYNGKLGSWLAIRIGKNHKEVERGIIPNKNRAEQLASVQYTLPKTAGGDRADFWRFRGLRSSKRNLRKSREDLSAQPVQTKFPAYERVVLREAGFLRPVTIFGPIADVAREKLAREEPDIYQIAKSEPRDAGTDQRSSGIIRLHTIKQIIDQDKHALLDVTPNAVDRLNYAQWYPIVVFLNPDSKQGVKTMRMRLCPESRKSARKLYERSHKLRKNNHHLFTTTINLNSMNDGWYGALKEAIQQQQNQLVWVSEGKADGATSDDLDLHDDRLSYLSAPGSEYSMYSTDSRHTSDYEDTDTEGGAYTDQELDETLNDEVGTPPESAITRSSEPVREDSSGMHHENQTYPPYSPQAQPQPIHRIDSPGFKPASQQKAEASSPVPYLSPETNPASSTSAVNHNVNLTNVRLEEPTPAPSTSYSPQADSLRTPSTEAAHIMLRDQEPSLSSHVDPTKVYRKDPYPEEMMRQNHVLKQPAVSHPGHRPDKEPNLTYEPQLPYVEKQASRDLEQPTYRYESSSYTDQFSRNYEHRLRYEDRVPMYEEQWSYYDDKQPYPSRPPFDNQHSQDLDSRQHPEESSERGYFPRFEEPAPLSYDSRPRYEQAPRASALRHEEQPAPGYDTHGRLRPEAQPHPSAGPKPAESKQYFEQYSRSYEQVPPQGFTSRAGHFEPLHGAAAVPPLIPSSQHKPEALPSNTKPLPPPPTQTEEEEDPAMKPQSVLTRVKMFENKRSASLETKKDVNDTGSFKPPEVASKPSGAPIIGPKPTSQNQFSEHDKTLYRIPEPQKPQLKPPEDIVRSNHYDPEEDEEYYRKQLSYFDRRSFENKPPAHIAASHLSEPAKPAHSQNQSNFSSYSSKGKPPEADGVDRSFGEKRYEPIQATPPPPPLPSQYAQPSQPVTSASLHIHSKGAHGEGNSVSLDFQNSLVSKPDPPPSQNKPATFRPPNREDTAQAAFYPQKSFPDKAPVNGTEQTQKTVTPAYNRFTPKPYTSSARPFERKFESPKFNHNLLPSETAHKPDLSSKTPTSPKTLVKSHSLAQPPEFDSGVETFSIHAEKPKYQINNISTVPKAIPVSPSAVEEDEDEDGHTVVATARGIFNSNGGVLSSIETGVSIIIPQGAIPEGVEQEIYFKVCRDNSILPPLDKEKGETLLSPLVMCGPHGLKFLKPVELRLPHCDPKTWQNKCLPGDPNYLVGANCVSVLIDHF

The assay concerns the target full-length ZO1 with C-terminal mEGFP (UniProt Q07157). The assay can be described thus: client partitioning into phase-separated droplets.
Consider “C-terminal domain of occludin (from UniProt Q16625 1-522) (domain or fragment)”, for which the partitioning (client fluorescence inside/outside ZO1 droplets) was found to be 21 fold.

As for “monomeric actin (from UniProt P60709 1-375) (natural protein)”, the partitioning (client fluorescence inside/outside ZO1 droplets) is 22 fold.

“C-terminal domain of nectin-1 (from UniProt Q15223 31-517) (domain or fragment)”: the partitioning (client fluorescence inside/outside ZO1 droplets) came out at 9 fold.
